From the supplement of paper PMC9170038

Tests used:
[1] = system: MS2 coat protein; experiment: apparent KD of MS2 coat protein, switch ON state; designed switch direction (-1 OFF switch, 1 ON switch): -1; higher = weaker reporter binding; details: FMN input: 0 or 200 uM; Eterna round: R93 (includes R88 designs)
Outline: (§1)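 Designed RNA switches were made by on-chip transcription from Illumina sequencing clusters and then titrated with SNAP-549-labelled MS2 coat protein. Twofold steps ran from 0.7 or 1.5 nM to 3 µM, each lasting 0.8–1.5 h early and 10–20 min late, in 100 mM Tris-HCl pH 7.5, 80 mM KCl, 4 mM MgCl2, without or with constant ligand. Apparent KD is the per-design median of normalised cluster binding-curve fits.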

[2] = system: MS2 coat protein; experiment: apparent KD of MS2 coat protein, switch OFF state (with FMN for OFF switches, without FMN for ON switches); designed switch direction (-1 OFF switch, 1 ON switch): -1; higher = weaker reporter binding; details: FMN input: 0 or 200 uM; Eterna round: R93 (includes R88 designs)
Outline: as §1

Row | Sequence | apparent KD of MS2 coat protein [1] [µM] | apparent KD of MS2 coat protein [2] [µM]
1 | AGCUAGUCAGGAUAUACGAACAUGUCAGAAGACGUAAGGGAACAUGAGGAUCACCCAUGUAGAAGGGACUAGCA [Diamond 48] | 0.0331 | 0.075
2 | AGCUAGUCAGGAUAUACGCAAACGAACGAAGCAGAGAAGGGACAUGAGGAUCACCCAUGUAGAAGGGACUAGCA [Diamond 31] | 0.0288 | 0.0849
3 | AGCUAGUGAGGAUAUGCGAACAUGUCAAAAGACGUGAAGGGACAUGAGGAUCACCCAUGUAGAAGGCACUAGCA [JL 74% mod 3] | 0.0264 | 0.0363
4 | AGCUCGGUAGGAUAUACAAAAUGAUUGCGAAAGCAAUCAACACAUGAGGAUCACCCAUGUAGAAGGACCGAGCA [Mat - Exclusion 2 - JL-Eli mod - D42] | 0.0152 | 0.02
5 | AGGAAACAUGAGGAUCACCCAUGUAAGGAUAUGAACGAAAUAAAAUAAAAAUAAAAGUUCAGAAGGUACAAAAA [Mat - Exclusion 1 - Eli mod - D8] | 0.0318 | 0.0393
6 | AGGAAACAUGAGGAUCACCCAUGUCAGGAUAUUGAAAAGAAAAGAAAAGAAAGAAGAACAAGAAGGGACAAGAA [Mekh] | 0.0272 | 0.0206
7 | AGGAAACAUGAGGAUCACCCAUGUGAGGAUAUGAGAAAGAAAAGAAAAGAAAGAAGAAUCAGAAGGCACAAGAA [Raneb] | 0.0428 | 0.0466
8 | AGGGAGUCAGGAUAUCGGAAAAAAAAACAACGAAAAAAAGACGAGAAGGGACAUGAGGAUCACCCAUGUAAGAA [milkweed 16] | 0.0414 | 0.0235
9 | AGGUUGUCAGGAUAUGCGUGAAGAAUAAAACAAAUAACAACGCAGAAGGGACAUGAGGAUCACCCAUGUUAAGA [May 47] | 0.0398 | 0.0483
10 | AGUACUACAGGAUAUACGAGGGAGGUCCACGUGAACCUUAUACAUGAGGAUCACCCAUGUAGAAGGGUAGUACA [Ex2 Design 108: Super Stable 8] | 0.0509 | 0.0184
11 | AGUCAGAGAGGAUAUACAUAGGAAAAAAAAGUAAGAUCCCUACAUGAGGAUCACCCAUGUAGAAGGCUCUGACA [Ex2 Design 140: Sub-opt 4] | 0.141 | 0.0875
12 | AGUCAGAGAGGAUAUACAUGGAAAAAAAAAGUAAGAUCCCUACAUGAGGAUCACCCAUGUAGAAGGCUCUGACA [Ex2 Design 138: Sub-opt 2] | 0.0275 | 0.0132
13 | AGUCGGCGAGGAUAUACAUGAGGAUCACCCAUGUGAGAGAAAAAAGUGAGCAAGAAAUGUAGAAGGCGCUGACA [JL Lego Mod 3] | 0.156 | 0.0619
14 | AGUCGGCGAGGAUAUACAUGAGGAUCACCCAUGUGAGAGAAAAAGGUGAGUCAGAAAAGUAGAAGGCGCUGACA [JL Lego Mod 5] | 0.166 | 0.0474
15 | AGUCGGCGAGGAUAUACAUGAGGAUCACCCAUGUGAGAGAAUAAAGUGAGUUAGACAAGUAGAAGGCGCUGACA [JL Lego Mod 10] | 0.0405 | 0.226
16 | AGUCUGAGAGGAUAUACAUGGAAAAAAAAAGUUAGAUCCCUACAUGAGGAUCACCCAUGUAGAAGGCUCUGACA [Ex2 Design 149: Sub-opt 13] | 0.0458 | 0.0152
17 | AGUUGGCGAGGAUAUACAUGAGGAUCACCCAUGUAAAAUAAAUAAAAAAUAAGGGAAAGUAGAAGGCGCUGACA [73%, Moding Norbert Elias, 14] | 0.0465 | 0.112
18 | AGUUGGCGAGGAUAUACAUGAGGAUCACCCAUGUGAGAGAAAUAAGUGAGAAAGAAAAGUAGAAGGCGCUCACA [JL Lego Mod 17] | 0.068 | 0.0474
19 | AUAAACAGAGGAUAUACACAAAAUAAAGAAAAUAAAGAAACACAUGAGGAUCACCCAUGUAGAAGGCUGGAAAA | 0.0233 | 0.0227
20 | AUCUUGUCAGGAUAUGACUACAUAAAAAAAAAAAAAUGUAGUCAGAAGGGACAUGAGGAUCACCCAUGUACCAA [HSL_Exclusion 4 64% 2] | 0.0291 | 0.0241

Row | Sequence | apparent KD of MS2 coat protein [1] [µM] | apparent KD of MS2 coat protein [2] [µM]
21 | AUGGUACAUGAGGAUCACCCAUGUCAGGAUAUCGGCUGUGACAUGAAAAAAAUGUUAGUGAGAAGGGACUGUAA [EX1 Malc#18 Mod 4 - Jieux - Exclusion 1] | 0.0854 | 0.102
22 | CAACAGUCAGGAUAUGCAAAAAAAACGCAACGCAAAAAAAAGCAGAAGGGACAUGAGGAUCACCCAUGUUGUCG [Exclusion4-03] | 0.0295 | 0.0229
23 | CAAGGUGGAGGAUAUACAUGAGGAUCACCCAUGUAAGGACAAUAAAUAAGAUGAAGAAGUAGAAGGCCACUCAA [e3-3] | 0.0415 | 0.0421
24 | CACGGGUUAGGAUAUGCAUGGUGAAAAGACGCGAUCCUUAGACAUGAGGAUCACCCAUGUAGAAGGAACGCGAU [Reonisar] | 0.0172 | 0.015
25 | CAGUACUGAGGAUAUACAUGAGGAUCACCCAUGUGGUCCAGCUAGGAAACUAGCACGUGUAGAAGGCAGUACUG [Ex3: 840] | 0.0295 | 0.02
26 | CCGAGACAUGAGGAUCACCCAUGUGAGGAUAUAGGUGUAUGCUAAAAAAAGUUAACAACUAGAAGGCACAGAGG [JR_Exc001_Sub308] | 0.0557 | 0.129
27 | CUCAAGUAAGGAUAUCCAAGAAAAGAAGAGAAAGAAAAGAAGGAGAAGGUACAUGAGGAUCACCCAUGUAAGAA [EteRNA is fun!] | 0.0287 | 0.0237
28 | CUCAAGUGAGGAUAUCAGUAGUAAAAAAAUAAAAUUACUACUGAGAAGGCACAUGAGGAUCACCCAUGUUCCAA [EX4 342: Super Stable 42] | 0.124 | 0.181
29 | CUCAUGUCAGGAUAUAGCCACAUGAGGAUCACCCAUGUGGACUAGAAGGGACAUGAGGAUCACCCAUGUAUGAA | 0.011 | 0.0113
30 | CUCUAGUCAGGAUAUCCAAGAAAAGAAGAGAAAGAAAAGAAGGAGAAGGGACAUGAGGAUCACCCAUGUAAGAA [EteRNA is fun!] | 0.0759 | 0.0464
31 | CUCUUGUAAGGAUAUGACUACAUAAAAAAAAAAAAAUGUAGUCAGAAGGUACAUGAGGAUCACCCAUGUACUAA [Brourd - Exclusion 4 - Sub 2] | 0.0208 | 0.0262
32 | CUCUUGUGAGGAUAUGAAAGAAAAGAAAAGAAAGAAAAGAAUCAGAAGGCACAUGAGGAUCACCCAUGUAAGAA [EteRNA is fun!] | 0.037 | 0.0797
33 | CUCUUGUGAGGAUAUGCAAGAAAAGAAAAGAAAGAAAAGAAGCAGAAGGCACAUGAGGAUCACCCAUGUAAGAA [EteRNA is fun!] | 0.0533 | 0.0259
34 | GAAAAACAUGAGGAUCACCCAUGUAAGGAUAUGCUGAAAAACACGGAAAAAACGUGCAGCAGAAGGUACAAAAA [Mat - Exclusion 1 - Eli mod - D92] | 0.0158 | 0.0281
35 | GAAAAACAUGAGGAUCACCCAUGUCAGGAUAUACAAAAAUAAAUAAAAAUAAAAUAAAGUAGAAGGGACAAAAG [Mat - Same state - Mayanna Mod - D110] | 0.0529 | 0.0573
36 | GAAAAGAGAGGAUAUACUUUGGGAAAAGAAAAGAUGAUGUUACAUGAGGAUCACCCAUGUAGAAGGCUCAAAAA [Mat - Exclusion 2 - Mod - D156] | 0.0271 | 0.0446
37 | GAAAAGGUAGGAUAUACGAAAAAAAAGGGUAGAAAAAAAACACAUGAGGAUCACCCAUGUAGAAGGACCAAAAG [Mat - Exclusion 2 - Tesla mod - D30] | 0.0266 | 0.602
38 | GAAAAGUCAGGAUAUGUGGAAAAAAUAAAAAAAAUAAAAACACAGAAGGGACAUGAGGAUCACCCAUGUAAAAG [Mat - Exclusion 4 - Mayanna - D141] | 0.101 | 0.0622
39 | GAAAAGUCAGGAUAUGUGGAAAAAAUAAAAAAAAUAAAAACACAGAAGGGACAUGAGGAUCACCCAUGUUAAAA [Mat - Exclusion 4 - Mayanna - D137] | 0.0524 | 0.0288
40 | GAAAAGUGAGGAUAUUCGGAUAGGAAAACGAAAACCUAUCCGAAGAAGGCACAUGAGGAUCACCCAUGUGGAAA [Mat - Exaclusion 4 - Eli mod - D45] | 0.0301 | 0.0315
